This passage reports Kd results from the FLAb antibody collection (doi:10.1101/2023.12.08.570889).

B1: unnamed (protein)
chain 1: QVQLVQSGAEVKKPGASVKVSCKASGYIFSNYWIQWVRQAPGQGLEWMGEILPGSGSTEYTENFKDRVTMTRDTSTSTVYMELSSLRSEDTAVYYCARDRFDVASGSSFDFWGQGTLVTVSS
chain 2: DIQMTQSPSSLSASVGDRVTITCGASENIYGALNWYQQKPGKAPKLLIYGATNLADGVPSRFSGSGSGTDFTLTISSLQPEDFATYYCQNVLNTPLTFGQGTKVEIK
B2: unnamed (protein)
chain 1: B1 chain 1 with D99Y, F101W, D102G, V103D, A104T, S105P, G106Y, S107I, S108Y, F111Y
chain 2: B1 chain 2
B3: unnamed (protein)
chain 1: QVQLVQSGAEVKKPGASVKVSCKASGYIFSNYWIQWVRQAPGQGLEWMGEILPGSGSTEYTENFKDRVTMTRDTSTSTVYMELSSLRSEDTAVYYCARLYYGDTPYIYFDYWGQGTLVTVSS
chain 2: B1 chain 2
B4: unnamed (protein)
chain 1: B3 chain 1 with Y100R, Y106T
chain 2: B1 chain 2
B5: unnamed (protein)
chain 1: B3 chain 1 with L99Y, Y106F
chain 2: B1 chain 2
B6: unnamed (protein)
chain 1: B3 chain 1 with L99Y, Y101W, Y106I
chain 2: B1 chain 2
B7: unnamed (protein)
chain 1: B3 chain 1 with Y100R, Y101W, Y106I
chain 2: B1 chain 2
B8: unnamed (protein)
chain 1: B3 chain 1 with L99Y, Y100R, Y101W, Y106I
chain 2: B1 chain 2
B9: unnamed (protein)
chain 1: B3 chain 1 with L99Y, Y101W
chain 2: B1 chain 2
B10: unnamed (protein)
chain 1: B3 chain 1 with L99F, Y100R, Y106I
chain 2: B1 chain 2
B11: unnamed (protein)
chain 1: B3 chain 1 with L99Y, Y100R
chain 2: B1 chain 2
B12: unnamed (protein)
chain 1: B3 chain 1 with L99Y, Y100R, Y106F
chain 2: B1 chain 2
B13: unnamed (protein)
chain 1: B3 chain 1 with L99Y, Y100R, Y106T
chain 2: B1 chain 2
B14: unnamed (protein)
chain 1: B3 chain 1 with Y100R, Y106F
chain 2: B1 chain 2
B15: unnamed (protein)
chain 1: B1 chain 1 with F101S, D102Y, V103G, A104D, G106S, S107W, S108A, F109L, F111A
chain 2: B1 chain 2
B16: unnamed (protein)
chain 1: B3 chain 1 with L99Y, Y106T
chain 2: B1 chain 2
B17: unnamed (protein)
chain 1: QVQLVQSGAEVKKPGASVKVSCKASGYTFTSSYINWVRQAPGQGLEWMGTINPVTGNTSYAQKFQGRVTMTRDTSISTAYMELSRLRSDDTAVYYCARGGYFDYWGQGTLVTVSS
chain 2: QSALTQPASVSGSPGQSITISCTGTSSDVGSYNYVNWYQQHPGKAPKLMIYGVSKRPSGVSNRFSGSKSGNTASLTISGLQAEDEADYYCGTFAGGSYYGVFGGGTKLTVL
B18: unnamed (protein)
chain 1: B17 chain 1 with Y33G, G100N, F102M
chain 2: B17 chain 2
B19: unnamed (protein)
chain 1: B17 chain 1 with S32T
chain 2: B17 chain 2

Positions count from the first letter of the chain named.

Sequence of ACVR2B, Q13705 (Q13705 whole entry, looked up): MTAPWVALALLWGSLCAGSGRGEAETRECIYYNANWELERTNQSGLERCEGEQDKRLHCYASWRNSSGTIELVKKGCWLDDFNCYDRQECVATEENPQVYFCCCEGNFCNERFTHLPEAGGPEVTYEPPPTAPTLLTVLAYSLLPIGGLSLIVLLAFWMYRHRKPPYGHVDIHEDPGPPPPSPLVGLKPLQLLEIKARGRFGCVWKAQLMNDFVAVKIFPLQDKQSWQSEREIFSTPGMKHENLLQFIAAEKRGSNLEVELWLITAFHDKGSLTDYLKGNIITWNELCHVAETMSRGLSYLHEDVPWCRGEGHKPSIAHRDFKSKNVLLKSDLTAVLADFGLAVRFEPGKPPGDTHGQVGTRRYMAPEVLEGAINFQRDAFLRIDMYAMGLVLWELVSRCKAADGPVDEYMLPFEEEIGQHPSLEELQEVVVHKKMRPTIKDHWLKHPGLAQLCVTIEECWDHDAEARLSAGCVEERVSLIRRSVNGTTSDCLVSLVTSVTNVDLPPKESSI

One assay deals with C5, P01031. Put plainly: Kd (SPR).
The molecule B1 registered a dissociation constant Kd of 325 nM.

With B2, the Kd was found to be 850 nM. Against the preceding molecule, the Kd is about 2.6-fold higher.

On to B3, for which the Kd came out at 492 nM.

In turn, B4 showed an equilibrium dissociation constant (Kd) of 469 nM. The Kd values of the last two molecules are within 1.5-fold of each other.

The molecule B5 showed a Kd of 96.3 nM. Against the preceding molecule, the Kd is about 4.9-fold lower.

In the case of B6, the dissociation constant Kd was determined as 162 nM.

The molecule B7 came in with a Kd of 749 nM.

For B8, the Kd was 502 nM.

The molecule B9 returned a Kd of 204 nM.

Regarding B10, the Kd was determined as 280 nM.

Consider B11, for which the Kd was 583 nM.

As to B12, the Kd was 385 nM.

Consider B13, for which the Kd came to 689 nM.

For B14, the Kd amounted to 937 nM.

B15 displayed a Kd of 3980 nM. This Kd lies about 4.2-fold higher than the previous one.

In turn, B16 came in with a Kd of 111 nM. Against the preceding molecule, the Kd is about 36-fold lower.

A further assay concerns the target ACVR2B, Q13705. Description: Kd (SPR).
B17 yielded a Kd of 10.3 nM.

Molecule B18 registered a Kd of 0.581 nM.

For the molecule B19, the Kd is 7.87 nM.
